Test results: paper PMC10693564 (Nature Communications, 2023)

Biological target: T1, UBE1L (1-1012aa) (UniProt P41226 1-1012)
T1 construct: In the cryo-EM sample its active-site cysteine was disulfide-linked to Cys86 of UBE2L6; also called UBA7; not shown: GST, N-terminal, cleaved
T1 sequence (looked up): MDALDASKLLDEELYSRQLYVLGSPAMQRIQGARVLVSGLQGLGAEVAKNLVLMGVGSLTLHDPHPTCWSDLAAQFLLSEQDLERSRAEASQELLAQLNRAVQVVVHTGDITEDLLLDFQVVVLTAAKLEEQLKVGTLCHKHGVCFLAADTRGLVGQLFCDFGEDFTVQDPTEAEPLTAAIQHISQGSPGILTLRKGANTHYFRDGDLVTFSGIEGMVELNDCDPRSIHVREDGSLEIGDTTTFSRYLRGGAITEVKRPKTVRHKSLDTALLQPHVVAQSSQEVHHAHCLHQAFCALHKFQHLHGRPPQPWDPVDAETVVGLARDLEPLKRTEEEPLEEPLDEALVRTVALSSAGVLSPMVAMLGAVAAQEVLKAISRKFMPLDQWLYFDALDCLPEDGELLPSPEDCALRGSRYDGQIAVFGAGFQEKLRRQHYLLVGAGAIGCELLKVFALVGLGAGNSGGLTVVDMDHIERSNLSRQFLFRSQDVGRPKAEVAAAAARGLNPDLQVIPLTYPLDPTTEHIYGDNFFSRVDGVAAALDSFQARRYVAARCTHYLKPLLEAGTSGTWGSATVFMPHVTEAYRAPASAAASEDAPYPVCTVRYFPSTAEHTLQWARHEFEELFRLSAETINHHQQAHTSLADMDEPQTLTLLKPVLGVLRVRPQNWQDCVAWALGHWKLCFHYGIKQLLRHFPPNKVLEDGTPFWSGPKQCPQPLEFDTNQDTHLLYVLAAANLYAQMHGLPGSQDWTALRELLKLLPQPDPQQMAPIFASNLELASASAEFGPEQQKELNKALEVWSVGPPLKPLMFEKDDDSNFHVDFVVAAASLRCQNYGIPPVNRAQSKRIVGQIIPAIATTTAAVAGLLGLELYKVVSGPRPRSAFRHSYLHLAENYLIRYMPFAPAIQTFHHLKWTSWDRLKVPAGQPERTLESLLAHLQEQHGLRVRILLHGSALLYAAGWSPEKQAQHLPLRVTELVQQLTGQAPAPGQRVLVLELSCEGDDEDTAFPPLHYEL
Assay: cryo-EM structure
Conditions: both partners purified

binding result: binds
B1: UBE2L6^C86only (enzyme)
chain: MMASMRVVKELEDLQKKPPPYLRNLSSDDANVLVWHALLLPDQPPYHLKAFNLRISFPPEYPFKPPMIKFTTKIYHPNVDENGQICLPIISSENWKPSTKTSQVLEALNVLVNRPNIREPLRMDLADLLTQNPELFRKNAEEFTLRFGVDRPS
notes: non-catalytic cysteines mutated to serine; also called UBE2L6(C98S/C102S); UbcH8; not shown: 6xHis, N-terminal, cleaved; GST, N-terminal, cleaved
